This series deals with the molecule itself. Description: size exclusion chromatography, Superdex 75, pH 6.0 (self-association, homodimer). (Size exclusion chromatography separates by hydrodynamic size, large species first.)

B1: recombinant Trypanosoma cruzi proline racemase TcPRACA (rTcPRACA), C-terminal His6-tagged (enzyme)
chain: GQEKLLFDQKYKIIKGEKKEKKKNQRANRREHQQKREIMRFKKSFTCIDMHTEGEAARIVTSGLPHIPGSNMAEKKAYLQENMDYLRRGIMLEPRGHDDMFGAFLFDPIEEGADLGMVFMDTGGYLNMCGHNSIAAVTAAVETGIVSVPAKATNVPVVLDTPAGLVRGTAHLQSGTESEVSNASIINVPSFLYQQDVVVVLPKPYGEVRVDIAFGGNFFAIVPAEQLGIDISVQNLSRLQEAGELLRTEINRSVKVQHPQLPHINTVDCVEIYGPPTNPEANYKNVVIFGNRQADRSPCGTGTSAKMATLYAKGQLRIGETFVYESILGSLFQGRVLGEERIPGVKVPVTKDAEEGMLVVTAEITGKAFIMGFNTMLFDPTDPFKNGFTLKQ
notes: the entry below describes its self-association into a homodimer; also called TcPA45; not shown: C-terminal six-histidine tag from pET28b(+)
On to B1, for which the binding result is reported as “binds”.
